Data as given in PMC4557955.

tested on: BPs gp33103 repressor (short, prophage-encoded form) (Mycobacteriophage BPs); experiment: EMSA; details: EMSA: 20 mM Tris pH 7.5, 10 mM EDTA, 25 mM NaCl, 10 mM spermidine, 1 mM DTT, 1 ug calf thymus DNA in 10 ul, room temperature 30 min, 5% native gel …

Row | Substance | Kd
1 | 54-55 intergenic region (O55) | 2.6 µM
2 | GCATTTTCCAATAGACGACATATGTGCCTATGTTGGTGCACA (double strand) [O61-R] | 19.5 µM
3 | 5-6 intergenic region (O6) | 2.75 µM
4 | GCATCACGGACGCTGCTATCCGACATATGTCGTGGATGATCGGGATATGGCC (double strand) [O27-R] | 11 µM
5 | TCCAATAGACGACATATGTCGCT (double strand) [TIR-6] | 9.5 µM
6 | 33-34 intergenic region wild type (366 bp) | 2.61 µM
7 | CACACACGACGCTTGCACCGCGACATATGTCGGTTTTGCAGACGTGCAGGTT (double strand) [O6-L] | 10.5 µM
8 | GCATTTTCCAATAGACCGCATATGTCGCTATGTTGGTGCACA (double strand) [O27-L] | 38.5 µM
9 | 26-27 intergenic region (O27) | 0.9 µM
10 | TCGGACATGGTGAACGCTTGCGACATATGTCGCCAATGTGTGCATCTTTGCA (double strand) [O55-L] | 8.5 µM
11 | 60-61 intergenic region (O61) | 3.4 µM
12 | CAAACGCAAAAGTTCGGGCGTGGCGCATTTTCCAATAGAC (double strand) [TIR-5] | 12.5 µM
